The values below come from patent publication US20190225650A1, “PEPTIDOMIMETIC MACROCYCLES AND USE THEREOF IN REGULATING HIF1ALPHA” (AILERON THERAPEUTICS, INC., priority 2013, published 2019).

B1: SP-60 (peptide)
peptide: Ac-FIDEEVLA[S5]LVI[S5]AALD-NH2
modifications: staple 9-13
SMILES: CC[C@H](C)[C@H](NC(=O)[C@H](Cc1ccccc1)NC(C)=O)C(=O)N[C@@H](CC(=O)O)C(=O)N[C@@H](CCC(=O)O)C(=O)N[C@@H](CCC(=O)O)C(=O)N[C@H](C(=O)N[C@@H](CC(C)C)C(=O)N[C@@H](C)C(=O)N[C@@]1(C)CCCC=CCCC[C@@](C)(C(=O)N[C@@H](C)C(=O)N[C@@H](C)C(=O)N[C@@H](CC(C)C)C(=O)N[C@@H](CC(=O)O)C(N)=O)NC(=O)[C@H]([C@@H](C)CC)NC(=O)[C@H](C(C)C)NC(=O)[C@H](CC(C)C)NC1=O)C(C)C
B2: SP-42 (peptide)
peptide: Ac-FIDEEVL[Nle][S5]LVI[S5][Nle]ALDRE-NH2
modifications: staple 9-13
SMILES: CCCC[C@H](NC(=O)[C@H](CC(C)C)NC(=O)[C@@H](NC(=O)[C@H](CCC(=O)O)NC(=O)[C@H](CCC(=O)O)NC(=O)[C@H](CC(=O)O)NC(=O)[C@@H](NC(=O)[C@H](Cc1ccccc1)NC(C)=O)[C@@H](C)CC)C(C)C)C(=O)N[C@@]1(C)CCCC=CCCC[C@@](C)(C(=O)N[C@@H](CCCC)C(=O)N[C@@H](C)C(=O)N[C@@H](CC(C)C)C(=O)N[C@@H](CC(=O)O)C(=O)N[C@@H](CCCNC(=N)N)C(=O)N[C@@H](CCC(=O)O)C(N)=O)NC(=O)[C@H]([C@@H](C)CC)NC(=O)[C@H](C(C)C)NC(=O)[C@H](CC(C)C)NC1=O
B3: SP-58 (peptide)
peptide: Ac-FIDEEVL[Nle][S5]LVI[S5][Nle]ALDSI-NH2
modifications: staple 9-13
SMILES: CCCC[C@H](NC(=O)[C@H](CC(C)C)NC(=O)[C@@H](NC(=O)[C@H](CCC(=O)O)NC(=O)[C@H](CCC(=O)O)NC(=O)[C@H](CC(=O)O)NC(=O)[C@@H](NC(=O)[C@H](Cc1ccccc1)NC(C)=O)[C@@H](C)CC)C(C)C)C(=O)N[C@@]1(C)CCCC=CCCC[C@@](C)(C(=O)N[C@@H](CCCC)C(=O)N[C@@H](C)C(=O)N[C@@H](CC(C)C)C(=O)N[C@@H](CC(=O)O)C(=O)N[C@@H](CO)C(=O)N[C@H](C(N)=O)[C@@H](C)CC)NC(=O)[C@H]([C@@H](C)CC)NC(=O)[C@H](C(C)C)NC(=O)[C@H](CC(C)C)NC1=O
B4: SP-69 (peptide)
peptide: Ac-FIDEQVL[Nle][S5]LVI[S5][Nle]ALDRI-NH2
modifications: staple 9-13
SMILES: CCCC[C@H](NC(=O)[C@H](CC(C)C)NC(=O)[C@@H](NC(=O)[C@H](CCC(N)=O)NC(=O)[C@H](CCC(=O)O)NC(=O)[C@H](CC(=O)O)NC(=O)[C@@H](NC(=O)[C@H](Cc1ccccc1)NC(C)=O)[C@@H](C)CC)C(C)C)C(=O)N[C@@]1(C)CCCC=CCCC[C@@](C)(C(=O)N[C@@H](CCCC)C(=O)N[C@@H](C)C(=O)N[C@@H](CC(C)C)C(=O)N[C@@H](CC(=O)O)C(=O)N[C@@H](CCCNC(=N)N)C(=O)N[C@H](C(N)=O)[C@@H](C)CC)NC(=O)[C@H]([C@@H](C)CC)NC(=O)[C@H](C(C)C)NC(=O)[C@H](CC(C)C)NC1=O
B5: SP-45 (peptide)
peptide: Ac-FSDEEVL[Nle][S5]LVI[S5][Nle]ALDRI-NH2
modifications: staple 9-13
SMILES: CCCC[C@H](NC(=O)[C@H](CC(C)C)NC(=O)[C@@H](NC(=O)[C@H](CCC(=O)O)NC(=O)[C@H](CCC(=O)O)NC(=O)[C@H](CC(=O)O)NC(=O)[C@H](CO)NC(=O)[C@H](Cc1ccccc1)NC(C)=O)C(C)C)C(=O)N[C@@]1(C)CCCC=CCCC[C@@](C)(C(=O)N[C@@H](CCCC)C(=O)N[C@@H](C)C(=O)N[C@@H](CC(C)C)C(=O)N[C@@H](CC(=O)O)C(=O)N[C@@H](CCCNC(=N)N)C(=O)N[C@H](C(N)=O)[C@@H](C)CC)NC(=O)[C@H]([C@@H](C)CC)NC(=O)[C@H](C(C)C)NC(=O)[C@H](CC(C)C)NC1=O
B6: SP-48 (peptide)
peptide: Ac-FIDEESL[Nle][S5]LVI[S5][Nle]ALDRI-NH2
modifications: staple 9-13
SMILES: CCCC[C@H](NC(=O)[C@H](CC(C)C)NC(=O)[C@H](CO)NC(=O)[C@H](CCC(=O)O)NC(=O)[C@H](CCC(=O)O)NC(=O)[C@H](CC(=O)O)NC(=O)[C@@H](NC(=O)[C@H](Cc1ccccc1)NC(C)=O)[C@@H](C)CC)C(=O)N[C@@]1(C)CCCC=CCCC[C@@](C)(C(=O)N[C@@H](CCCC)C(=O)N[C@@H](C)C(=O)N[C@@H](CC(C)C)C(=O)N[C@@H](CC(=O)O)C(=O)N[C@@H](CCCNC(=N)N)C(=O)N[C@H](C(N)=O)[C@@H](C)CC)NC(=O)[C@H]([C@@H](C)CC)NC(=O)[C@H](C(C)C)NC(=O)[C@H](CC(C)C)NC1=O
B7: SP-52 (peptide)
peptide: Ac-FIDEEVL[Nle][S5]LSI[S5][Nle]ALDRI-NH2
modifications: staple 9-13
SMILES: CCCC[C@H](NC(=O)[C@H](CC(C)C)NC(=O)[C@@H](NC(=O)[C@H](CCC(=O)O)NC(=O)[C@H](CCC(=O)O)NC(=O)[C@H](CC(=O)O)NC(=O)[C@@H](NC(=O)[C@H](Cc1ccccc1)NC(C)=O)[C@@H](C)CC)C(C)C)C(=O)N[C@@]1(C)CCCC=CCCC[C@@](C)(C(=O)N[C@@H](CCCC)C(=O)N[C@@H](C)C(=O)N[C@@H](CC(C)C)C(=O)N[C@@H](CC(=O)O)C(=O)N[C@@H](CCCNC(=N)N)C(=O)N[C@H](C(N)=O)[C@@H](C)CC)NC(=O)[C@H]([C@@H](C)CC)NC(=O)[C@H](CO)NC(=O)[C@H](CC(C)C)NC1=O
B8: SP-44 (peptide)
peptide: Ac-SIDEEVL[Nle][S5]LVI[S5][Nle]ALDRI-NH2
modifications: staple 9-13
SMILES: CCCC[C@H](NC(=O)[C@H](CC(C)C)NC(=O)[C@@H](NC(=O)[C@H](CCC(=O)O)NC(=O)[C@H](CCC(=O)O)NC(=O)[C@H](CC(=O)O)NC(=O)[C@@H](NC(=O)[C@H](CO)NC(C)=O)[C@@H](C)CC)C(C)C)C(=O)N[C@@]1(C)CCCC=CCCC[C@@](C)(C(=O)N[C@@H](CCCC)C(=O)N[C@@H](C)C(=O)N[C@@H](CC(C)C)C(=O)N[C@@H](CC(=O)O)C(=O)N[C@@H](CCCNC(=N)N)C(=O)N[C@H](C(N)=O)[C@@H](C)CC)NC(=O)[C@H]([C@@H](C)CC)NC(=O)[C@H](C(C)C)NC(=O)[C@H](CC(C)C)NC1=O
B9: SP-49 (peptide)
peptide: Ac-FIDEEVS[Nle][S5]LVI[S5][Nle]ALDRI-NH2
modifications: staple 9-13
SMILES: CCCC[C@H](NC(=O)[C@H](CO)NC(=O)[C@@H](NC(=O)[C@H](CCC(=O)O)NC(=O)[C@H](CCC(=O)O)NC(=O)[C@H](CC(=O)O)NC(=O)[C@@H](NC(=O)[C@H](Cc1ccccc1)NC(C)=O)[C@@H](C)CC)C(C)C)C(=O)N[C@@]1(C)CCCC=CCCC[C@@](C)(C(=O)N[C@@H](CCCC)C(=O)N[C@@H](C)C(=O)N[C@@H](CC(C)C)C(=O)N[C@@H](CC(=O)O)C(=O)N[C@@H](CCCNC(=N)N)C(=O)N[C@H](C(N)=O)[C@@H](C)CC)NC(=O)[C@H]([C@@H](C)CC)NC(=O)[C@H](C(C)C)NC(=O)[C@H](CC(C)C)NC1=O
B10: SP-50 (peptide)
peptide: Ac-FIDEEVLS[S5]LVI[S5][Nle]ALDRI-NH2
modifications: staple 9-13
SMILES: CCCC[C@H](NC(=O)[C@]1(C)CCCC=CCCC[C@](C)(NC(=O)[C@H](CO)NC(=O)[C@H](CC(C)C)NC(=O)[C@@H](NC(=O)[C@H](CCC(=O)O)NC(=O)[C@H](CCC(=O)O)NC(=O)[C@H](CC(=O)O)NC(=O)[C@@H](NC(=O)[C@H](Cc2ccccc2)NC(C)=O)[C@@H](C)CC)C(C)C)C(=O)N[C@@H](CC(C)C)C(=O)N[C@@H](C(C)C)C(=O)N[C@@H]([C@@H](C)CC)C(=O)N1)C(=O)N[C@@H](C)C(=O)N[C@@H](CC(C)C)C(=O)N[C@@H](CC(=O)O)C(=O)N[C@@H](CCCNC(=N)N)C(=O)N[C@H](C(N)=O)[C@@H](C)CC
B11: SP-29 (peptide)
peptide: Ac-DFIDEEVL[Nle][S5]LVI[S5][Nle]ALDRI-NH2
modifications: staple 10-14
SMILES: CCCC[C@H](NC(=O)[C@H](CC(C)C)NC(=O)[C@@H](NC(=O)[C@H](CCC(=O)O)NC(=O)[C@H](CCC(=O)O)NC(=O)[C@H](CC(=O)O)NC(=O)[C@@H](NC(=O)[C@H](Cc1ccccc1)NC(=O)[C@H](CC(=O)O)NC(C)=O)[C@@H](C)CC)C(C)C)C(=O)N[C@@]1(C)CCCC=CCCC[C@@](C)(C(=O)N[C@@H](CCCC)C(=O)N[C@@H](C)C(=O)N[C@@H](CC(C)C)C(=O)N[C@@H](CC(=O)O)C(=O)N[C@@H](CCCNC(=N)N)C(=O)N[C@H](C(N)=O)[C@@H](C)CC)NC(=O)[C@H]([C@@H](C)CC)NC(=O)[C@H](C(C)C)NC(=O)[C@H](CC(C)C)NC1=O

Bridge positions count the residues as written; N and C are the ends. Square brackets hold non-standard residues; d marks the D form. S5 = C=CCCC[C@](C)(N)C(=O)O; Nle = CCCC[C@H](N)C(=O)O

The target of this assay is T1, His6-tagged p300 (AA 323-423) (UniProt Q09472 323-423).
T1 construct: range 323-423; also called p300-CH; not shown: His6 tag
T1 sequence (Q09472 323-423 limits assumed): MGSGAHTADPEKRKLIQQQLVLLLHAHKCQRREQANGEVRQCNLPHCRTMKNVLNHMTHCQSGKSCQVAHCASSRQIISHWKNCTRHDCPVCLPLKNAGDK
Nature of the assay: TR-FRET HIF1a/p300 displacement; grade = IC50 >700 nM. As for the experimental part:
The ability of peptides to displace HIF1α c-terminal trans-activation domain from p300-CH was measured by a TR FRET assay. […] The complex was diluted to 300 nM final in complete assay media and competitor peptides were added. The complete assay media contained 150 mM NaCl (Sigma +S5150 or equivalent), 20 mM HEPES pH 7.4 (Boston Bioproducts, Ashland, Mass.; #BB-2076), 7.5 mM CHAPS (Thermo #28300 or equivalent), and 1 mM DTT. Protein and peptide were incubated at room temperature for 1 hour before the addition of anti-Flag-K and anti-6×HIS-D2 (CisBio, Bedford Mass.) HTRF reconstitution buffer (50 mM Phosphate pH 7, 0.8 Potassium Flouride, BSA 0.2%)¹ to a final concentration of 0.5 μM and 4 nM respectively. The reaction continued for an additional two hours at room temperature. The reaction was read on a TECAN F500 plate reader with settings recommended by CisBio. The ratio of donor to acceptor fluorescence was calculated. The resulting data was analyzed with Graphpad Prism 5.0. IC50 values were calculated for both proteins using the One Site Fit-LogIC50 equation and presented in the column “IC₅₀ (nM) (HIF1α_p300 Displacement+CHAPS)” of Table 6. ¹ Cisbio USA, Bedford, Mass.; 61HISDLB (lot 007A), 61FG2KLB (024A), HTRF Buffer (62RB3RDF)
B1 gave an IC50 of more than 700 nM. On to B2, for which the IC50 was more than 700 nM. B3 registered an IC50 of more than 700 nM.

Turning to B4, the IC50 was more than 700 nM. On to B5, for which the IC50 is more than 700 nM. Molecule B6 returned an IC50 of more than 700 nM. B7 had an IC50 of more than 700 nM. For B8 the value was more than 700 nM; for B9, more than 700 nM; for B10, more than 700 nM. B11: the IC50 is more than 700 nM.
